Reference: patent US20240409650A1 (ARMAGEN, published 2024)

Assays:
[1] = molecular target: T1, HIR extracellular domain (ECD) (human, UniProt P06213 28-956, limits assumed); assay: ELISA on plated HIR ECD; ED50 normalised with a MW of 375 kDa
T1 construct: extracellular domain; also called HIR ECD; IR ECD

[2] = molecular target: T1, HIR extracellular domain (ECD); assay: ELISA, HIR ECD plated on Nunc-Maxisorb wells, biotinylated goat anti-human IgG detection; ED50 by inspection
[3] = molecular target: T1, HIR extracellular domain (ECD); assay: ELISA on HIR ECD; ED50 normalised with a MW of 150 kDa
[4] = molecular target: T1, HIR extracellular domain (ECD); assay: ELISA on lectin affinity purified HIR ECD; printed as ED50, non-linear regression
[5] = molecular target: T1, HIR extracellular domain (ECD); assay: ELISA on plated HIR ECD; ED50 normalised with a MW of 150 kDa
[6] = molecular target: T1, HIR extracellular domain (ECD); assay: ELISA on HIR ECD; ED50 normalised with a MW of 350 kDa
[7] = molecular target: T1, HIR extracellular domain (ECD); assay: ELISA on HIR ECD (FIG. 17); the same 166 ng/mL ED50 normalised with a MW of 375 kDa

B1: HIRMAb-L-NAGLU fusion protein (23 amino acid L linker) (antibody, human IgG1, human IgG3, kappa)
heavy: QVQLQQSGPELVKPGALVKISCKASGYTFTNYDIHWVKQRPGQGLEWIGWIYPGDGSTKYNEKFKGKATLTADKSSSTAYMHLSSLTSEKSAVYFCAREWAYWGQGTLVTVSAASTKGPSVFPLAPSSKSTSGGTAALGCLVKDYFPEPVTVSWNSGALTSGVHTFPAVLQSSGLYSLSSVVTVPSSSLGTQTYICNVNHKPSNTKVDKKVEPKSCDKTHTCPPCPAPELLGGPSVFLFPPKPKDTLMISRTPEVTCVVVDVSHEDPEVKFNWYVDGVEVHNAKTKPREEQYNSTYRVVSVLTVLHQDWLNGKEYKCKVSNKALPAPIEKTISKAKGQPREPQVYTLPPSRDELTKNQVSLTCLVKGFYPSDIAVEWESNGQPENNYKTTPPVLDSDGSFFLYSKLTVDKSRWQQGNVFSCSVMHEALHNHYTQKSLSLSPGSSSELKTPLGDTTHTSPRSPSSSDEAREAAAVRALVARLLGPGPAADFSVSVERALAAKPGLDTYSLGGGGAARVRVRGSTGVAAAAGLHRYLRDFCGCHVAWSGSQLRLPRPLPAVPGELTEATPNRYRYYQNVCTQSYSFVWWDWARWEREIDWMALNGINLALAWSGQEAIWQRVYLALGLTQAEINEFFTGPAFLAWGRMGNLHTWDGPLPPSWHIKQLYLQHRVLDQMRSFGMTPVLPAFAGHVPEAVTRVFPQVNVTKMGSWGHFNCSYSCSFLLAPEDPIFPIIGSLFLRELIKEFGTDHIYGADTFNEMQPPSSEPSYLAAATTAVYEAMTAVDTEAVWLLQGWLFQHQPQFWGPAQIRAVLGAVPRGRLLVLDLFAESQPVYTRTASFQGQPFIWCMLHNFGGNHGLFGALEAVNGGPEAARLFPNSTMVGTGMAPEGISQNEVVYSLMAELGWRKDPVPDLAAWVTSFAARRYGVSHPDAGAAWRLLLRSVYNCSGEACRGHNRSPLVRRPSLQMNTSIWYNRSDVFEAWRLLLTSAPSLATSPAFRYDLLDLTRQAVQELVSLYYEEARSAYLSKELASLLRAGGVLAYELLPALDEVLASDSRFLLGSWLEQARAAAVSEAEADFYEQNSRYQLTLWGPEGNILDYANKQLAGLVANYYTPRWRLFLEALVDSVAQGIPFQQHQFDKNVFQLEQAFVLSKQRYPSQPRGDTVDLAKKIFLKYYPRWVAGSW
light: DIQMTQSPSSLSASLGERVSLTCRASQDIGGNLYWLQQGPDGTIKRLIYATSSLDSGVPKRFSGSRSGSDYSLTISSLESEDFVDYYCLQYSSSPWTFGGGTKLEIKRTVAAPSVFIFPPSDEQLKSGTASVVCLLNNFYPREAKVQWKVDNALQSGNSQESVTEQDSKDSTYSLSSTLTLSKADYEKHKVYACEVTHQGLSSPVTKSFNRGEC
notes: COS-derived (transient expression), purified on protein A. Hetero-tetramer; also called HIR Ab-L-NAGLU fusion protein; IgG-L-NAGLU
For B1, the EC50 [1] was 0.93 nM and the EC50 [2] was 0.35 µg/mL.

B2: chimeric HIRMAb (chimeric monoclonal antibody against the human insulin receptor) (antibody, human IgG1, kappa)
heavy: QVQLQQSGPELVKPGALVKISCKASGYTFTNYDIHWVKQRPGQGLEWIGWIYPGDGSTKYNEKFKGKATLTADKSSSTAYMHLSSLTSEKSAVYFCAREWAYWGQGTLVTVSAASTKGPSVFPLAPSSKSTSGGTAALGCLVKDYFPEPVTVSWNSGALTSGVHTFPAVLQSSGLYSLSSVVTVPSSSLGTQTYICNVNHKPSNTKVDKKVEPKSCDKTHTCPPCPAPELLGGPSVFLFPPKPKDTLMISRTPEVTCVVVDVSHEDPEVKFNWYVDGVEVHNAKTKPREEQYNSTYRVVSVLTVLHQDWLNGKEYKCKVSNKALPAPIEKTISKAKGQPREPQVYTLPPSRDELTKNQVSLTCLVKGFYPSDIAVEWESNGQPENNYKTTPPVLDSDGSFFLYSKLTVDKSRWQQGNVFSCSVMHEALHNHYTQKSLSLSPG
light: B1 light
notes: also called HIR Ab; HIRMAb alone
Binder B2 has an EC50 [3] of 0.29 nM, an EC50 [4] of 0.043 µg/mL and an EC50 [2] of 0.065 µg/mL. It also gave an EC50 [5] of 0.43 nM.

B3: HIRMAb-LL-NAGLU fusion protein (31 amino acid LL linker) (antibody, human IgG1, human IgG3, kappa)
heavy: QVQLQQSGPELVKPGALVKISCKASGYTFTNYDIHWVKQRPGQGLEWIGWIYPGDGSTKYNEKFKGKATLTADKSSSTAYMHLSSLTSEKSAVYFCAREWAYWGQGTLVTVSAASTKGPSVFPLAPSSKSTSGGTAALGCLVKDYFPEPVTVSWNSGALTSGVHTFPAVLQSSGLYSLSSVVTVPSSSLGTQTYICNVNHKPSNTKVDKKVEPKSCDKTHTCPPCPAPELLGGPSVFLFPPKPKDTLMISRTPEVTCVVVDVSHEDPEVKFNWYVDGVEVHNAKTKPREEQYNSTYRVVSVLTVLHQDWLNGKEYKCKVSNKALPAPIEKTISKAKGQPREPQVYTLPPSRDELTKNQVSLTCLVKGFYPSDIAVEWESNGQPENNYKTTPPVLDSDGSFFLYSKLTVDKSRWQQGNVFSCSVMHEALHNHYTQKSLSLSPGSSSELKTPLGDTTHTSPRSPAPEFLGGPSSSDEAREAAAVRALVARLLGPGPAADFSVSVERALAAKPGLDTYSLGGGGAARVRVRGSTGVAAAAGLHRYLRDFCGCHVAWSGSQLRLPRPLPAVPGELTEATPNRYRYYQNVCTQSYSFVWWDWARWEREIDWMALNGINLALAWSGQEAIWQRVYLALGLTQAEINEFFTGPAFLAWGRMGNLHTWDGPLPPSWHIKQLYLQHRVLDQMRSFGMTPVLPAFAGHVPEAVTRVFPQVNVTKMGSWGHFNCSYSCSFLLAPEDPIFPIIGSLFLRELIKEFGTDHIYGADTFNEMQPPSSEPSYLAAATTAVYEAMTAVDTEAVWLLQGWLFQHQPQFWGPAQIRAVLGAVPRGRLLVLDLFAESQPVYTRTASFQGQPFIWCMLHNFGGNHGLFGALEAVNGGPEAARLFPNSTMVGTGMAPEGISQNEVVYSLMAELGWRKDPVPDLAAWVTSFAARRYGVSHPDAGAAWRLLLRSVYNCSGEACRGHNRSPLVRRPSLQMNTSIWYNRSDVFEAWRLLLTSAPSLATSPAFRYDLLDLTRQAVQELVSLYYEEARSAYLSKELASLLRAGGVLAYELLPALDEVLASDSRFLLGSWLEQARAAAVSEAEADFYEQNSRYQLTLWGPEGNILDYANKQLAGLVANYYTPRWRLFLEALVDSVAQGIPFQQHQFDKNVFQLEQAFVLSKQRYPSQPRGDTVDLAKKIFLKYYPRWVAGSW
light: B1 light
notes: also called HIR Ab HC-LL-NAGLU; printed in places as HIRMAb-NAGLU or HIR Ab-NAGLU fusion protein
Binder B3 has an EC50 [4] of 0.166 µg/mL, an EC50 [6] of 0.47 nM and an EC50 [7] of 0.44 nM.
